Assay results reported in patent US20210196796A1 (SYNTHEKINE, published 2021).

Columns and labels:
[1] = biological target: T1, orthogonal hCD122 receptor (hoRb), hCD122 with H133D and Y134F (human, UniProt P14784 27-550); assay: cell-based or functional assay
T1 sequence: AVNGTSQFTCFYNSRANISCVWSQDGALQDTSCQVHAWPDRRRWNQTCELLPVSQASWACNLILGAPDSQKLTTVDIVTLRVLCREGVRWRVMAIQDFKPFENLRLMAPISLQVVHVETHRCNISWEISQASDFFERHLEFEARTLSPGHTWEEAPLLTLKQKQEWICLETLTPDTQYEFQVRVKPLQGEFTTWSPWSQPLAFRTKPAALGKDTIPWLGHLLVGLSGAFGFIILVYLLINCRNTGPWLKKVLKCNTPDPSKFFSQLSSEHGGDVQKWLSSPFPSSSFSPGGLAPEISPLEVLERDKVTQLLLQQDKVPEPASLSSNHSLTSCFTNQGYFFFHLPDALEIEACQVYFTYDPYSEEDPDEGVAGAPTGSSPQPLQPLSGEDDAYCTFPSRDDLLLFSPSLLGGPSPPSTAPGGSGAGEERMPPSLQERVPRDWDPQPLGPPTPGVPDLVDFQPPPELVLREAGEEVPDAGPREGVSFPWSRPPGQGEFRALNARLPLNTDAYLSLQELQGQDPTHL

[2] = biological target: T1, orthogonal hCD122 receptor (hoRb), …; assay: cell-based or functional assay; remark: listed apart in the source
For Relative Proliferation Fold Change 3F8 1:10 in this document: reference of the scale not given here.
For Relative Proliferation Fold Change 3F8 1:2 in this document: reference of the scale not given here.
For Relative Proliferation Fold Change 3F8 1:50 in this document: reference of the scale not given here.
For Relative Proliferation Fold Change NKL 1:10 in this document: reference of the scale not given here.
For Relative Proliferation Fold Change NKL 1:2 in this document: reference of the scale not given here.
For Relative Proliferation Fold Change NKL 1:50 in this document: reference of the scale not given here.

Binder	NKL Ortho Proliferation Signal 1:2 [1]	NKL Ortho Proliferation Signal 1:10 [1]	NKL Ortho Proliferation Signal 1:50 [1]	Relative Proliferation Fold Change NKL 1:2 [1]	Relative Proliferation Fold Change NKL 1:10 [1]	Relative Proliferation Fold Change NKL 1:50 [1]	3F8 Ortho Proliferation Signal 1:2 [2]	3F8 Ortho Proliferation Signal 1:10 [2]	3F8 Ortho Proliferation Signal 1:50 [2]	Relative Proliferation Fold Change 3F8 1:2 [2]	Relative Proliferation Fold Change 3F8 1:10 [2]	Relative Proliferation Fold Change 3F8 1:50 [2]
ΔL19, SQ_LKA (ligand) APTSSSTKKTQLQLSQLLLLKAILNGINNYKNPKLTRMLTFKFYMPKKATELKHLQCLEEELKPLEEVLNLAQSKNFHLRPRDLISNINVIVLELKGSETTFMCEYADETATIVEFLNRWITFCQSIISTLT	6440	9120	8470	0.49 fold	0.62 fold	0.59 fold	736 cts/min	1070 cts/min	1540 cts/min	1.11 fold	1.27 fold	1.98 fold
ΔD20, SQV_KA (ligand) APTSSSTKKTQLQLSQLLVLKAILNGINNYKNPKLTRMLTFKFYMPKKATELKHLQCLEEELKPLEEVLNLAQSKNFHLRPRDLISNINVIVLELKGSETTFMCEYADETATIVEFLNRWITFCQSIISTLT	6790	9390	8690	0.52 fold	0.59 fold	0.56 fold	1010 cts/min	1270 cts/min	1370 cts/min	1.51 fold	1.35 fold	1.66 fold
L18Q, SQVLKA (ligand) APTSSSTKKTQLQLSQLQVLLKAILNGINNYKNPKLTRMLTFKFYMPKKATELKHLQCLEEELKPLEEVLNLAQSKNFHLRPRDLISNINVIVLELKGSETTFMCEYADETATIVEFLNRWITFCQSIISTLT	47500	41200	21400	3.93 fold	2.5 fold	1.41 fold	40800 cts/min	57200 cts/min	44700 cts/min	111 fold	80.8 fold	47.2 fold
L18Y, SQVLKA (ligand) APTSSSTKKTQLQLSQLYVLLKAILNGINNYKNPKLTRMLTFKFYMPKKATELKHLQCLEEELKPLEEVLNLAQSKNFHLRPRDLISNINVIVLELKGSETTFMCEYADETATIVEFLNRWITFCQSIISTLT	37300	27000	14800	3.34 fold	2.09 fold	1.19 fold	47600 cts/min	51400 cts/min	28200 cts/min	214 fold	101 fold	64 fold
L18T, SQVLKA (ligand) APTSSSTKKTQLQLSQLTVLLKAILNGINNYKNPKLTRMLTFKFYMPKKATELKHLQCLEEELKPLEEVLNLAQSKNFHLRPRDLISNINVIVLELKGSETTFMCEYADETATIVEFLNRWITFCQSIISTLT	25000	20100	11300	2.37 fold	1.49 fold	0.87 fold	61100 cts/min	51800 cts/min	25700 cts/min	2.05 fold	6.27 fold	13.8 fold
L18D, SQVLKA (ligand) APTSSSTKKTQLQLSQLDVLLKAILNGINNYKNPKLTRMLTFKFYMPKKATELKHLQCLEEELKPLEEVLNLAQSKNFHLRPRDLISNINVIVLELKGSETTFMCEYADETATIVEFLNRWITFCQSIISTLT	6380	8160	7460	0.6 fold	0.59 fold	0.56 fold	44000 cts/min	49600 cts/min	25200 cts/min	92.5 fold	81.3 fold	28.4 fold
L18I, SQVLKA (ligand) APTSSSTKKTQLQLSQLIVLLKAILNGINNYKNPKLTRMLTFKFYMPKKATELKHLQCLEEELKPLEEVLNLAQSKNFHLRPRDLISNINVIVLELKGSETTFMCEYADETATIVEFLNRWITFCQSIISTLT	23800	20500	11000	2.05 fold	1.38 fold	0.8 fold	36900 cts/min	37300 cts/min	19400 cts/min	81.2 fold	29.8 fold	11 fold
L18V, SQVLKA (ligand) APTSSSTKKTQLQLSQLVVLLKAILNGINNYKNPKLTRMLTFKFYMPKKATELKHLQCLEEELKPLEEVLNLAQSKNFHLRPRDLISNINVIVLELKGSETTFMCEYADETATIVEFLNRWITFCQSIISTLT	17800	14000	8670	1.36 fold	0.96 fold	0.62 fold	36500 cts/min	29500 cts/min	9920 cts/min	139 fold	19.2 fold	12 fold
T3A, SQVLKA (ligand) APASSSTKKTQLQLSQLLVLLKAILNGINNYKNPKLTRMLTFKFYMPKKATELKHLQCLEEELKPLEEVLNLAQSKNFHLRPRDLISNINVIVLELKGSETTFMCEYADETATIVEFLNRWITFCQSIISTLT	69100	79500	47000	3.91 fold	4.22 fold	2.67 fold	41400 cts/min	39300 cts/min	19500 cts/min	17.1 fold	11 fold	8.68 fold
SQVSKA (ligand) APTSSSTKKTQLQLSQLLVSLKAILNGINNYKNPKLTRMLTFKFYMPKKATELKHLQCLEEELKPLEEVLNLAQSKNFHLRPRDLISNINVIVLELKGSETTFMCEYADETATIVEFLNRWITFCQSIISTLT	59500	73700	45000	1 fold	1.73 fold	1.91 fold	47300 cts/min	56600 cts/min	33100 cts/min	0.81 fold	1.23 fold	1.29 fold
SQILKA (ligand) APTSSSTKKTQLQLSQLLILLKAILNGINNYKNPKLTRMLTFKFYMPKKATELKHLQCLEEELKPLEEVLNLAQSKNFHLRPRDLISNINVIVLELKGSETTFMCEYADETATIVEFLNRWITFCQSIISTLT	55300	52500	24500	4.01 fold	3.44 fold	1.67 fold	38500 cts/min	45700 cts/min	20300 cts/min	45.8 fold	34.2 fold	34.4 fold
L18S, SQVLKA (ligand) APTSSSTKKTQLQLSQLSVLLKAILNGINNYKNPKLTRMLTFKFYMPKKATELKHLQCLEEELKPLEEVLNLAQSKNFHLRPRDLISNINVIVLELKGSETTFMCEYADETATIVEFLNRWITFCQSIISTLT	27200	21500	11500	2.4 fold	1.56 fold	0.85 fold	43300 cts/min	48600 cts/min	23600 cts/min	185 fold	89 fold	41.9 fold
